Laboratory results from publication doi:10.1101/2022.04.11.487660 (bioRxiv, 2022).

Biological target: lysozyme (UniProt P00698)
Assay: ELISA

B1: camel nanobody 1ZVH, displayed on phage (VHH)
VHH: DVQLVESGGGSVQAGGSLRLSCAASGYIASINYLGWFRQAPGKEREGVAAVSPAGGTPYYADSVKGRFTVSLDNAENTVYLQMNSLKPEDTALYYCAAARQGWYIPLNSYGYNYWGQGTQVTVSS
binding result: binds
